Data taken from patent publication US20140030266A1.

How the values were obtained:
[1] = target: MIF receptor CD74 ectodomain (CD74 73-232, sCD74) (UniProt P04233); assay: competition binding assay on sCD74 with biotinylated human MIF as the competed ligand [panel A]
[2] = target: MIF receptor CD74 ectodomain (CD74 73-232, sCD74) (UniProt P04233); assay: SPR (BIAcore 2000), sCD74 immobilized
[3] = target: MIF receptor CD74 ectodomain (CD74 73-232, sCD74) (UniProt P04233); assay: SPR (BIAcore 2000), sCD74 immobilized, ligand in solution
[4] = target: MIF receptor CD74 ectodomain (CD74 73-232, sCD74) (UniProt P04233); assay: competition binding assay on sCD74, biotinylated human MIF as competitor

IC50 (read off the curve) [1]: 300 nM | affinity relative to MIF (% lower than MIF) [2]: 60 | fold higher binding rate than MIF [2]: 3 fold | koff [2]: 0.00066 s⁻¹ | kon [2]: 120000 M⁻¹ s⁻¹ | Kd [3]: 5.42 nM | maximal effect on MIF binding compared with MIF [4]: 50%
Substance: human D-dopachrome tautomerase (D-DT), recombinant native-sequence protein (from UniProt P30046 2-118) (ligand)
